Test results reported in paper PMC7423924, “A fluorogenic cyclic peptide for imaging and quantification of drug-induced apoptosis” (Nature Communications, 2020).
“And” between values parts separate entries of the source, which are not always exact repeats. Identical values can stand only once.

System: BL-2 cells (lymphoid)
Assay: Flow cytometry staining before and after induction of apoptosis, BL-2
Assay type: cell-based, human
Settings: single replicates, listed as Ann V
Description: Fig. 2 Apo-15 binds to apoptotic cells of different origin in multiple environments. a Representative fluorescence confocal microscopy images (from three independent experiments) human apoptotic (yellow arrows) and viable (white arrows) cells from different lineages: BL-2 (lymphoid), neutrophils (myeloid), and primary airway epithelial cells (epithelial). Cells were incubated with Apo-15 (100 nM, green), AF647-Annexin V (5 nM, red), and Hoechst 33342 (7 μM, blue) for 10 min and imaged under a fluorescence confocal microscope (λexc.: 405, 488, 633 nm: λem.: 450, 525, 670 nm). Scale bars: 10 µm. b Divalent cation-independent binding of Apo-15 to apoptotic cells of different origin (top plots: lymphoid cells, bottom plots: myeloid cells). Mixtures of apoptotic (highlighted in green dots) and viable cells (highlighted in black dots) were stained with AF647-Annexin V (25 nM) and Apo-15 (100 nM) in the presence of 2 mM CaCl2 (left) or 2.5 mM EDTA (right). Representative histograms showing Apo-15 binding (x-axis) vs AF647-Annexin V binding (y-axis) acquired on 5L LSR flow cytometer (n = 5). c Cells were sorted on their Apo-15 positivity (green populations in panel b) or negativity (black populations in panel b). Gating strategy in Supplementary Fig. 7. Morphological analysis (four independent images from two independent experiments) of cytocentrifuge preparations of Apo-15-positive and Apo-15-negative cells under brightfield microscopy (scale bar: 10 µm). d Quantification of fluorescence staining of neutrophils (myeloid, n ≥ 5), BL-2 cells (lymphoid, n ≥ 3) and primary airway epithelial cells (epithelial, n = 5) before and after induction of apoptosis and upon treatment with Apo-15 and AF647-Annexin V. Data acquired on 5 L LSR flow cytometer and presented as mean values ± SEM. P values obtained from two-tailed t tests. Source data (in d) are provided as a Source data file. […]
All apopeptides were reconstituted at 5 mM in DMSO. […] Fluorescence emission was measured on a 5 L LSR flow cytometer (BD). […]

B1: Annexin V: fluorescently-labeled (AF647) annexin V, PS-binding protein (protein, UniProt P08758 2-320, looked up)
Annexin A5: AQVLRGTVTDFPGFDERADAETLRKAMKGLGTDEESILTLLTSRSNAQRQEISAAFKTLFGRDLLDDLKSELTGKFEKLIVALMKPSRLYDAYELKHALKGAGTNEKVLTEIIASRTPEELRAIKQVYEEEYGSSLEDDVVGDTSGYYQRMLVVLLQANRDPDAGIDEAQVEQDAQALFQAGELKWGTDEEKFITIFGTRSVSHLRKVFDKYMTISGFQIEETIDRETSGNLEQLLLAVVKSIRSIPAYLAETLYYAMKGAGTDDHTLIRVMVSRSEIDLFNIRKEFRKNFATSLYSMIKGDTSGDYKKALLLLCGEDD
modifications: AF647 label
- Stained cells (flow cytometry) (BL-2 0h UV): 25.4% and 28.9% and 10.3%
- Stained cells (flow cytometry) (BL-2 3h UV, EDTA): 1.4% and 1.1% and 2.6%
- Stained cells (flow cytometry) (BL-2 3h UV): 86.9% and 45.3% and 46.5% and 34.9%
